Results reported in US20130011427A1 (priority 2009, published 2013).

Key:
Assay in all cases: cell-based or functional assay
[1] = target: HLA-DR3 (HLA-DRA*0101 / HLA-DRB1*0301) (human)
[2] = target: HLA-DR2 (chimeric HLA-DRA1*0101/DRB1*1501 with I-E domains) (human; murine) (UniProt Q8BHN5)
[3] = target: HLA-A2.1 (HHD monochain) (human; murine)
[4] = target: HLA-DR4 (HLA-DRA*0101 / HLA-DRB1*0401) (human)
[5] = target: HLA-B7 (chimeric HLA-B*0702 / H-2K^d heavy chain) (human; murine) (UniProt P01902)
UniProt P01902, sequence (P01902 whole entry, change not shown): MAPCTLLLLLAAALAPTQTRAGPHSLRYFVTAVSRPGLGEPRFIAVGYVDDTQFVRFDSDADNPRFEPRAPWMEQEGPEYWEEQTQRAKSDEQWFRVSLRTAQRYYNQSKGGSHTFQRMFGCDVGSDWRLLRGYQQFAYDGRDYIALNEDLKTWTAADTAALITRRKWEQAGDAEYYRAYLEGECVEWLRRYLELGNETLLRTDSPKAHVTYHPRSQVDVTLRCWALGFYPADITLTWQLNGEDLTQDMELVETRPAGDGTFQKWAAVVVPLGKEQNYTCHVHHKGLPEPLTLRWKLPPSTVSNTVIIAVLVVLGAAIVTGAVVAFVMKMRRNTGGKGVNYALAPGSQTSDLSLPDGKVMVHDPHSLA

UniProt Q8BHN5, sequence (Q8BHN5 whole entry, stated change not applied): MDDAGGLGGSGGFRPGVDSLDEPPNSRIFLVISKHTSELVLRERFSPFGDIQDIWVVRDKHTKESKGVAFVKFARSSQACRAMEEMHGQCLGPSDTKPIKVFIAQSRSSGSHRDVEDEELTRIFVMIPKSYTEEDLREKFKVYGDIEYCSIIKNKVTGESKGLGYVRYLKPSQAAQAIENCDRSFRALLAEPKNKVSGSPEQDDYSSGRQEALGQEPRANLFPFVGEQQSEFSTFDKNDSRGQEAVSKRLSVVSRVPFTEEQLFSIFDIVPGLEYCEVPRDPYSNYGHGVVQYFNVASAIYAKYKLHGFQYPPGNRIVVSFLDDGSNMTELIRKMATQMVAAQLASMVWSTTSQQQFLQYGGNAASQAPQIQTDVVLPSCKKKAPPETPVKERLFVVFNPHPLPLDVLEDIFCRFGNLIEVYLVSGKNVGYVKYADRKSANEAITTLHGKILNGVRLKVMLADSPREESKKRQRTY

Row | Substance | IFN-γ ELISpot (SFC/10^6) [1] | IFN-γ ELISpot (SFC/10^6) [4] | also measured
1 | WNV E 486-501 peptide | 244 SFC/10^6 |  | IFN-γ ELISpot (SFC/10^6) [2]: 214 SFC/10^6; IFN-γ ELISpot (SFC/10^6) [3]: 323 SFC/10^6
2 | WNV NS1 270-287 peptide |  | 54 SFC/10^6 | 
3 | WNV NS3 1-15 peptide |  |  | IFN-γ ELISpot (SFC/10^6) [5]: 45 SFC/10^6
4 | WNV NS3 228-243 peptide |  | 46 SFC/10^6 | 
5 | WNV NS3 474-489 peptide | 83 SFC/10^6 |  | IFN-γ ELISpot (SFC/10^6) [3]: 92 SFC/10^6
6 | WNV NS3 487-501 peptide | 431 SFC/10^6 |  | IFN-γ ELISpot (SFC/10^6) [3]: 308 SFC/10^6
7 | WNV NS3 492-509 peptide | 216 SFC/10^6 |  | 
8 | WNV NS3 560-574 peptide | 225 SFC/10^6 |  | 
9 | WNV NS4b 38-55 peptide | 67 SFC/10^6 |  | IFN-γ ELISpot (SFC/10^6) [2]: 57 SFC/10^6
10 | WNV NS4b 201-218 peptide | 99 SFC/10^6 | 73 SFC/10^6 | 
11 | WNV NS5 115-132 peptide | 79 SFC/10^6 |  | 
12 | WNV NS5 145-162 peptide |  |  | IFN-γ ELISpot (SFC/10^6) [5]: 50 SFC/10^6
13 | WNV NS5 153-168 peptide |  |  | IFN-γ ELISpot (SFC/10^6) [2]: 250 SFC/10^6; IFN-γ ELISpot (SFC/10^6) [3]: 332 SFC/10^6; IFN-γ ELISpot (SFC/10^6) [5]: 112 SFC/10^6
14 | WNV NS5 605-622 peptide |  | 240 SFC/10^6 | IFN-γ ELISpot (SFC/10^6) [2]: 556 SFC/10^6
15 | WNV NS5 704-721 peptide |  | 65 SFC/10^6 | 
16 | WNV NS5 763-780 peptide |  | 91 SFC/10^6 | IFN-γ ELISpot (SFC/10^6) [5]: 36 SFC/10^6
17 | WNV NS5 771-788 peptide |  | 135 SFC/10^6 | 
18 | WNV NS5 828-843 peptide |  |  | IFN-γ ELISpot (SFC/10^6) [5]: 39 SFC/10^6
19 | WNV prM 152-167 peptide | 90 SFC/10^6 | 117 SFC/10^6 | IFN-γ ELISpot (SFC/10^6) [2]: 269 SFC/10^6; IFN-γ ELISpot (SFC/10^6) [3]: 318 SFC/10^6

Further lines, with some results ahead:

Row | IFN-γ ELISpot (SFC/10^6) [1] | IFN-γ ELISpot (SFC/10^6) [4] | Substance | also measured
20 | 572 SFC/10^6 |  | WNV NS1 1-19 peptide | 
21 |  | 63 SFC/10^6 | WNV NS1 10-27 peptide | 
22 | 52 SFC/10^6 |  | WNV NS1 18-35 peptide | 
23 |  | 61 SFC/10^6 | WNV NS1 205-221 peptide | 
24 | 557 SFC/10^6 | 109 SFC/10^6 | WNV NS1 305-322 peptide | 
25 |  | 78 SFC/10^6 | WNV NS1 327-343 peptide | 
26 |  | 60 SFC/10^6 | WNV NS2a 65-81 peptide | 
27 | 231 SFC/10^6 |  | WNV NS2a 168-183 peptide | IFN-γ ELISpot (SFC/10^6) [2]: 556 SFC/10^6
28 |  | 104 SFC/10^6 | WNV NS2b 1-18 peptide | 
29 |  | 43 SFC/10^6 | WNV NS3 6-23 peptide | 
30 | 368 SFC/10^6 |  | WNV NS3 37-54 peptide | IFN-γ ELISpot (SFC/10^6) [2]: 149 SFC/10^6
31 | 63 SFC/10^6 |  | WNV NS3 45-59 peptide | 
32 | 121 SFC/10^6 |  | WNV NS3 480-496 peptide | 
33 | 145 SFC/10^6 |  | WNV NS3 500-517 peptide | IFN-γ ELISpot (SFC/10^6) [2]: 51 SFC/10^6
34 |  | 52 SFC/10^6 | WNV NS3 581-597 peptide | 
35 | 132 SFC/10^6 |  | WNV NS4a 1-17 peptide | 
36 |  | 187 SFC/10^6 | WNV NS4a 15-31 peptide | IFN-γ ELISpot (SFC/10^6) [2]: 278 SFC/10^6
37 | 386 SFC/10^6 | 92 SFC/10^6 | WNV NS4b 63-80 peptide | 
38 |  | 134 SFC/10^6 | WNV NS4b 101-118 peptide | 
39 |  | 83 SFC/10^6 | WNV NS4b 187-204 peptide | 
40 |  | 78 SFC/10^6 | WNV NS5 791-808 peptide | 
41 |  | 56 SFC/10^6 | WNV prM 121-138 peptide | IFN-γ ELISpot (SFC/10^6) [2]: 130 SFC/10^6
42 | 78 SFC/10^6 | 327 SFC/10^6 | WNV prM 136-153 peptide | IFN-γ ELISpot (SFC/10^6) [2]: 235 SFC/10^6
